# Entries after “also recorded” stand apart in the source; their conditions may differ.
# Legend:
# HUVEC = assay: Endothelial cell tube formation on Matrigel; format: cell-based, human; conditions: for Inhibits Angiogenesis (Matrigel® assay): tube formation, concentration not stated
# Procedure: Endothelial cells, for example, human umbilical vein endothelial cells (HUVEC) or human microvascular endothelial cells (HMVEC) which can be prepared or obtained commercially, are mixed at a concentration of 2×10^5 cells/mL with fibrinogen (5 mg/mL in phosphate buffered saline (PBS) in a 1:1 (v/v) ratio. Thrombin is added (5 units/ mL final concentration) and the mixture is immediately transferred to a 24-well plate (0.5 mL per well). The fibrin gel is allowed to form and then VEGF and bFGF are added to the wells (each at 5 ng/mL final concentration) along with the test compound. The cells are incubated at 37° C. in 5% CO2 for 4 days at which time the cells in each well are counted and classified as either rounded, elongated with no branches, elongated with one branch, or elongated with 2 or more branches. Results are expressed as the average of 5 different wells for each concentration of compound. Typically, in the presence of angiogenic inhibitors, cells remain either rounded or form undifferentiated tubes (e.g. 0 or 1 branch).
# This assay is recognized in the art to be predictive of angiogenic (or anti-angiogenic) efficacy in vivo (Min, H Y et al., Cancer Res. 56: 2428-2433,1996). In an alternate assay, endothelial cell tube formation is observed when endothelial cells are cultured on Matrigel® (Schnaper et al., J. Cell. Physiol. 165:107-118 1995). Endothelial cells (1×10^4 cells/well) are transferred onto Matrigel®-coated 24-well plates, and tube formation is quantitated after 48 hrs. Inhibitors are tested by adding them either at the same time as the endothelial cells or at various time points thereafter. Tube formation can also be stimulated by adding (a) angiogenic growth factors such as bFGF or VEGF, (b) differentiation stimulating agents (e.g.,. PMA) or (c) a combination of these.
# HUVEC were seeded onto Matrigel®-coated 96 well plates. Photomicrographs showing results are in FIGS. 4A and 4B.
# Endothelial cell tube formation on Matrigel® was stimulated by incubation for 24 hr with FGF-2 (20 ng/ml ), VEGF (20 ng/ml ) and PMA (40 ng/ml ) for 24 hours (FIG. 4A).
# Matrigel® tube formation assays in vitro were carried out as described above.
# [1] = tested on: human umbilical vein endothelial cell (HUVEC); assay: bFGF-stimulated HUVEC proliferation (MTS); format: cell-based; conditions: 48 hours
# Procedure: The ability of the compounds of the invention to inhibit the proliferation of EC's may be determined in a 96-well format. Type I collagen (gelatin) is used to coat the wells of the plate (0.1-1 mg/mL in PBS, 0.1 mL per well for 30 minutes at room temperature). After washing the plate (3× w/PBS), 3-6,000 cells are plated per well and allowed to attach for 4 hrs (37° C./5% CO2) in Endothelial Growth Medium (EGM; Clonetics) or M199 media containing 0.1-2% FBS. The media and any unattached cells are removed at the end of 4 hrs and fresh media containing bFGF (1-10 ng/mL) or VEGF (1-10 ng/mL) is added to each well. Compounds to be tested are added last and the plate is allowed to incubate (37° C./5% CO2) for 24-48 hrs. MTS (Promega) is added to each well and allowed to incubate from 1-4 hrs. The absorbance at 490 nm, which is proportional to the cell number, is then measured to determine the differences in proliferation between control wells and those containing test compounds.
# bFGF is used to stimulate human umbilical vein endothelial cell (HUVEC) proliferation. Cells are incubated in the presence of bFGF alone or with added inhibitors of proliferation for 48 hours in a 96 well plate. Proliferation is then measured using the colorimetric reagent, MTS. […]
# caspase-3 = assay: Caspase-3 activity in bFGF-stimulated HUVEC; format: cell-based, human; conditions: rHPRG at 10 and 100 nM, H/P at similar concentrations, relative to HKa
# Procedure: The ability of the compounds of the invention to promote apoptosis of EC's may be determined by measuring activation of caspase-3. Type I collagen (gelatin) is used to coat a P100 plate and 5×10^5 ECs are seeded in EGM containing 10% FBS. After 24 hours (at 37° C. in 5% CO2) the medium is replaced by EGM containing 2% FBS, 10 ng/ml bFGF and the desired test compound. The cells are harvested after 6 hours, cell lysates prepared in 1% Triton and assayed using the EnzChek® Caspase-3 Assay Kit #1 (Molecular Probes) according to the manufactures' instructions.
# In order to evaluate whether the observed anti-proliferative activity of HPRG was due to an induction of apoptosis, the activity of caspase-3 (an enzyme that is central to several pro-apoptotic pathways) was measured. HUVEC were grown in 100 mm^2 petri dishes in the presence of bFGF or bFGF+HPRG. Cells were extracted and caspase-3 activity measured using a fluorescent substrate.
# [2] = tested on: CAM of an 8-day old chick embryo; assay: Chick chorioallantoic membrane (CAM) angiogenesis assay; format: in vivo; conditions: inhibitor at 20 μg/ml with bFGF 30 μg/ml; counted 4 days after implantation
# Procedure: This assay is performed essentially as described by Nguyen et al. (Microvascular Res. 47:31-40 (1994)). A mesh containing either angiogenic factors (bFGF) or tumor cells plus inhibitors is placed onto the CAM of an 8-day old chick embryo and the CAM observed for 3-9 days after implantation of the sample. Angiogenesis is quantitated by determining the percentage of squares in the mesh which contain blood vessels.
# This assay was performed essentially as described by Nguyen et al. (Microvascular Res. 47:31-40 (1994)). […] Angiogenesis was quantitated by counting the number of microvessels that contacted the filter. In this experiment, microvessel were counted 4 days after implantation of the filter.
# [3] = tested on: angiogenesis stimulated by FGF-2; assay: Matrigel plug model, angiogenesis stimulated by FGF-2; format: in vivo, mice; conditions: 0.25 μM in plug; 7 days
# Procedure: This assay is performed essentially as described by Passaniti et al. (Lab Invest. 67:519-528 (1992). Ice-cold Matrigel® (e.g., 500 μL) (Collaborative Biomedical Products, Inc., Bedford, Mass.) is mixed with heparin (e.g., 50 μg/ml), FGF-2 (e.g., 400 ng/ml) and the compound to be tested. In some assays, bFGF may be substituted with tumor cells as the angiogenic stimulus. The Matrigel® mixture is injected subcutaneously into 4-8 week-old athymic nude mice at sites near the abdominal midline, preferably 3 injections per mouse. The injected Matrigel® forms a palpable solid gel. Injection sites are chosen such that each animal receives a positive control plug (such as FGF-2+ heparin), a negative control plug (e.g., buffer+heparin) and a plug that includes the compound being tested for its effect on angiogenesis, e.g., (FGF-2+heparin+compound). […] Hemoglobin (Hb) levels are determined using Drabkin's solution (e.g., obtained from Sigma) according to the manufacturers' instructions. […] The amount of fluorescence in the dispersed plug, determined fluorimetrically, also serves as a measure of angiogenesis in the plug. […]
# In this study, ice-cold Matrigel® (500 μL) was mixed with heparin (50 μg/ml), FGF-2 (400 ng/ml) and the compound to be tested. […] Hemoglobin levels were determined using Drabkin's solution (from Sigma) according to the manufacturers' instructions.
# [4] = tested on: Lewis lung adenocarcinoma 3LL cells; assay: Matrigel plug model, 3LL tumor cell-mediated angiogenesis; format: in vivo, mouse; conditions: concentration not given; FIG. 7 legend
# Excerpt: In this assay, tumor cells, for example 1-5×10^6 cells of the 3LL Lewis lung carcinoma or the rat prostate cell line MatLyLu, are mixed with Matrigel® and then injected into the flank of a mouse following the protocol described in Sec. B., above. A mass of tumor cells and a powerful angiogenic response can be observed in the plugs after about 5 to 7 days. The anti-tumor and anti-angiogenic action of a compound in an actual tumor environment can be evaluated by including it in the plug. Measurement is then made of tumor weight, Hb levels or fluorescence levels (of a dextran-fluorophore conjugate injected prior to sacrifice). To measure Hb or fluorescence, the plugs are first homogenize with a tissue homogenizer.
# The methods used in this study were essentially the same as described in Example VI except that 3LL tumor cells were used to stimulate angiogenesis instead of bFGF. Lewis lung adenocarcinoma 3LL cells (10^6 cells/plug) were mixed with cold Matrigel prior to injection. After seven days, the animals are sacrificed by cervical dislocation and the Matrigel® plugs recovered and processed as above.
molecule,measurement,setting,value
APPHG [ATN246],Inhibits Angiogenesis (Matrigel® assay),HUVEC,No
same,Inhibits Angiogenesis (Matrigel® assay),HUVEC; listed as APPHG,no effect on neovascularization
His-Pro-Pro-His-Gly (HPPHG; printed: His-Pro-Pro-His-Gly) [ATN228],Inhibits Angiogenesis (Matrigel® assay),HUVEC,Yes
same,Inhibits Angiogenesis (Matrigel® assay),HUVEC; listed as HPPHG,active
His-His-Pro-His-Gly (HHPHG; printed: His-His-Pro-His-Gly) [ATN230],Inhibits Angiogenesis (Matrigel® assay),HUVEC,Yes
same,Inhibits Angiogenesis (Matrigel® assay),HUVEC; listed as HHPHG,active
"HPRG: Histidine proline rich glycoprotein; rabbit HPRG has SEQ ID NO:3; applicants' designation ATN-234 (protein, UniProt P04196 19-525, looked up) Histidine-rich glycoprotein: VSPTDCSAVEPEAEKALDLINKRRRDGYLFQLLRIADAHLDRVENTTVYYLVLDVQESDCSVLSRKYWNDCEPPDSRRPSEIVIGQCKVIATRHSHESQDLRVIDFNCTTSSVSSALANTKDSPVLIDFFEDTERYRKQANKALEKYKEENDDFASFRVDRIERVARVRGGEGTGYFVDFSVRNCPRHHFPRHPNVFGFCRADLFYDVEALDLESPKNLVINCEVFDPQEHENINGVPPHLGHPFHWGGHERSSTTKPPFKPHGSRDHHHPHKPHEHGPPPPPDERDHSHGPPLPQGPPPLLPMSCSSCQHATFGTNGAQRHSHNNNSSDLHPHKHHSHEQHPHGHHPHAHHPHEHDTHRQHPHGHHPHGHHPHGHHPHGHHPHGHHPHCHDFQDYGPCDPPPHNQGHCCHGHGPPPGHLRRRGPGKGPRPFHCRQIGSVYRLPPLRKGEVLPLPEANFPSFPLPHHKHPLKPDNQPFPQSVSESCPGKFKSGFPQVSMFFTHTFPK",inhibition of bFGF-stimulated proliferation of HUVEC,"[1]; 100 nM, FIG. 2A",almost complete
same,inhibition of bFGF-stimulated proliferation of HUVEC,"[1]; concentration not given, FIGS. 2A, 2B",inhibit proliferation
same,induction of caspase-3 activity,caspase-3,induction of caspase-3
same,endothelial cell tube formation on Matrigel,"HUVEC; 500 nM, stimulated with FGF-2, VEGF and PMA for 24 hours",almost completely disrupted tube formation; also recorded: inhibition of EC tube formation
same,neovessel formation (blood vessel number),[2],capable of inhibiting neovessel formation; also recorded: inhibit angiogenesis
same,inhibition of angiogenesis (hemoglobin in plug),[3],completely inhibited angiogenesis; also recorded: inhibit angiogenesis
same,inhibition of 3LL tumor-mediated angiogenesis,[4],inhibit 3LL tumor-mediated angiogenesis
